This experiment concerns the target human CD40L protein translated from transfected CD40L mRNA (pCR2.1 CD40L WT, >100 nucleotide polyA tail) (human) (UniProt P29965). The experiment in a line: cell-based or functional assay.
Sequence of UniProt P29965 (P29965 whole entry): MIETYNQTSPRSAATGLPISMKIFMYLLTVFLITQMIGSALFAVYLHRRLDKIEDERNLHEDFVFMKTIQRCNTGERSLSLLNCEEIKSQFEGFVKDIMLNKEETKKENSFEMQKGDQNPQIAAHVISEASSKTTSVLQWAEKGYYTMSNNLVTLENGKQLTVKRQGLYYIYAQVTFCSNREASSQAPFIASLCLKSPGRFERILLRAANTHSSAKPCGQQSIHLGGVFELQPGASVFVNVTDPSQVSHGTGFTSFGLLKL

For “blocking CD40L monoclonal antibody 24-31 (eBioscience)”, the IL-12p70 (pg/ml), 'Cocktail' matured and reactivated DCs co-cultured with CD40L mRNA-transfected HeLa cells plus IFN-gamma plus 24-31 is 2.5 pg/mL; the IL-12p70 release by CD40L mRNA-transfected DCs cultured with IFN-gamma and 10 or 50 ug/ml blocking anti-CD40L antibody stood at 50%.

The values above are taken from US20070082400A1.
